Test results from PMC3809612.

Biological target: rat collagen (Type I collagen), coated on 96-well plates (rat) (UniProt P02454)
Test: binding of fluorescent protein or nanoworm conjugate to coated 96-well plates

Sequence of UniProt P02454 (P02454 152-1207, chain 1 of 2): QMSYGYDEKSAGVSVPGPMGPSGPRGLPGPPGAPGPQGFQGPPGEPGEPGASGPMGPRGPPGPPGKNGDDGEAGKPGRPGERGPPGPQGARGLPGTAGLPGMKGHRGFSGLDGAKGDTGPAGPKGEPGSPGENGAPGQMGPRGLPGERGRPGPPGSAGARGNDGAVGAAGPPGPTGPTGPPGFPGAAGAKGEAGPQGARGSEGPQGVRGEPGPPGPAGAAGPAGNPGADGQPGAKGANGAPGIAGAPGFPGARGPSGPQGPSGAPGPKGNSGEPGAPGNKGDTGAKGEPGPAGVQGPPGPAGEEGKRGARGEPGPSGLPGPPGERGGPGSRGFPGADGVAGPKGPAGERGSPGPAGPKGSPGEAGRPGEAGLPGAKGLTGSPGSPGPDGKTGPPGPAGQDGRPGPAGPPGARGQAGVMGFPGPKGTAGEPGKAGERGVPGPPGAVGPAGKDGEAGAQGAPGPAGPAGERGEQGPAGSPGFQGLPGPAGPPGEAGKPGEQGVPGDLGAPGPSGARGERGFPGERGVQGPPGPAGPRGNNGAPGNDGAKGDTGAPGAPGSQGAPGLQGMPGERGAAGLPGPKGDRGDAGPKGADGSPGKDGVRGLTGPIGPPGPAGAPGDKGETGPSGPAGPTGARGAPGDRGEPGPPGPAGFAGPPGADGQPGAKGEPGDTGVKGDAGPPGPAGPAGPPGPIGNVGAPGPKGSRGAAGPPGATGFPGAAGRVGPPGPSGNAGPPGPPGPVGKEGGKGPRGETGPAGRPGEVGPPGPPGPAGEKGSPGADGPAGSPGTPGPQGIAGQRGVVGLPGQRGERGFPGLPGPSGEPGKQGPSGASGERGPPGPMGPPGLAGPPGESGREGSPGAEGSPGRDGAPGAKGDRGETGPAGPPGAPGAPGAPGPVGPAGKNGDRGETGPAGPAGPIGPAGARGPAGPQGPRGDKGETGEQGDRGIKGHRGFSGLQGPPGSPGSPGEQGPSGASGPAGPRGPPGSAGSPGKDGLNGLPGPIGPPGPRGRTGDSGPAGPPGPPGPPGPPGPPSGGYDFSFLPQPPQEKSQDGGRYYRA
Sequence of UniProt P02454 (P02466 86-1125, chain 2 of 2, further chain): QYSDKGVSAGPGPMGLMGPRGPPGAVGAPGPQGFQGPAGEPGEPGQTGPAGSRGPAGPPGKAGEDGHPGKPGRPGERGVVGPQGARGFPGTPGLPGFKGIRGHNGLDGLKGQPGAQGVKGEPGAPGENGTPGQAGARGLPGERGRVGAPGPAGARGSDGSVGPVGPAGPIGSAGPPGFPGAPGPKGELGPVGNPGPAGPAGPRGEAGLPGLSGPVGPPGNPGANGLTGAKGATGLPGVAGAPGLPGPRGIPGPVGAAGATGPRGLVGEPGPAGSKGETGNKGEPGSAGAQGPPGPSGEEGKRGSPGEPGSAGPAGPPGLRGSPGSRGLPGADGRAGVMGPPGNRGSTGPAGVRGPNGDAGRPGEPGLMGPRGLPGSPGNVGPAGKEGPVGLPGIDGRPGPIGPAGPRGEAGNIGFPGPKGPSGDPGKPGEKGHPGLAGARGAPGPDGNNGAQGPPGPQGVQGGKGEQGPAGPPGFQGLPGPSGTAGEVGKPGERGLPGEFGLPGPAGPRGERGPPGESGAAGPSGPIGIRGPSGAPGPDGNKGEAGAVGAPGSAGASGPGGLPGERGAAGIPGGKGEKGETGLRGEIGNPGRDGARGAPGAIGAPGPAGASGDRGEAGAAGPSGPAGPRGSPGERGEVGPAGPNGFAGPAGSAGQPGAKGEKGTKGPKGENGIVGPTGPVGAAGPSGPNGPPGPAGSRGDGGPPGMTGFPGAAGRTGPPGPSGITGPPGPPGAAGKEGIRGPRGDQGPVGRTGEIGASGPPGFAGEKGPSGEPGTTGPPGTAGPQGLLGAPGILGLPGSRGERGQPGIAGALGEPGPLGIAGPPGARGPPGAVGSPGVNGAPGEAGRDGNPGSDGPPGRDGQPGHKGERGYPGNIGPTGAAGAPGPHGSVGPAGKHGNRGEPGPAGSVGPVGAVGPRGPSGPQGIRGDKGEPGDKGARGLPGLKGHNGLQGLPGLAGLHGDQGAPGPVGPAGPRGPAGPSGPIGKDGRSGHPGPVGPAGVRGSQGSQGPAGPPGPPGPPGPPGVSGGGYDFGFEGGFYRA

fold increase in binding to heated collagen, normalized to collagen at 37 °C | half-maximal binding temperature (temperature to which the collagen was heated) | fold increase in binding over unheated controls | Substance
7.2 x | 43.4 °C | – | 45-kDa gelatin-binding fibronectin proteolytic fragment, labelled with VivoTag-S750 (domain or fragment)
– | 41.7 °C | 6 fold | fibronectin fragment-conjugated iron oxide nanoworms
